Measurements from patent publication US20190241648A1 (STATEN BIOTECHNOLOGY B V, published 2019).
Ends that are not written are not given here.

Assays:
Test in all cases: cyclic peptide substitution array
[1] = target: T1, ApoC3 peptide L67E (human, thioether (positions not given here); not fully specified (bridges); also: thioether between a C-terminal Cys side chain and a modified N-terminus, the Cys is not in the chain)
T1 peptide: DKFSEFWDEDPEV
Summary of the method: (§1)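 Peptide microarrays incubated with antibody samples, then stained with goat anti-human IgG (Fc) DyLight680 and anti-HA DyLight800 control antibodies, scanned at intensity 7/7 (red/green). Secondary-only pre-stain checked background binding; framing HA peptides served as quality control; substitution effects read as changes in spot intensity.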

[2] = target: T2, ApoC3 peptide E63F (human, not fully specified; cyclic (thioether))
T2 peptide: DKFSFFWDLDPEV
Summary of the method: as §1

[3] = target: T3, ApoC3 peptide E70F (human, cyclic (thioether))
T3 peptide: DKFSEFWDLDPFV
Summary of the method: as §1

[4] = target: T4, ApoC3 peptide E70G (human, cyclic (thioether))
T4 peptide: DKFSEFWDLDPGV
Summary of the method: as §1

[5] = target: T5, ApoC3 peptide S62H (human, thioether (positions not given here); also: cyclic (thioether), ring places not given here)
T5 peptide: DKFHEFWDLDPEV
Summary of the method: as §1

[6] = target: T6, ApoC3 peptide P69H (human, not fully specified; cyclic (thioether))
T6 peptide: DKFSEFWDLDHEV
Summary of the method: as §1

[7] = target: T7, ApoC3 peptide V71H (human, thioether (positions not given here); also: cyclic (thioether), ring places not given here)
T7 peptide: DKFSEFWDLDPEH
Summary of the method: as §1

[8] = target: T8, ApoC3 peptide E63I (human, cyclic (thioether))
T8 peptide: DKFSIFWDLDPEV
Summary of the method: as §1

[9] = target: T9, ApoC3 peptide V71I (human, thioether (positions not given here); also: cyclic (thioether), ring places not given here)
T9 peptide: DKFSEFWDLDPEI
Summary of the method: as §1

[10] = target: T10, ApoC3 peptide D68K (human, cyclic (thioether))
T10 peptide: DKFSEFWDLKPEV
Summary of the method: as §1

[11] = target: T11, ApoC3 peptide D59L (human, thioether (positions not given here); not fully specified (C-terminus, bridges))
T11 peptide: LKFSEFWDLDPEV
Summary of the method: as §1

[12] = target: T12, ApoC3 peptide F61L (human, cyclic (thioether))
T12 peptide: DKLSEFWDLDPEV
Summary of the method: as §1

[13] = target: T13, ApoC3 peptide W65L (human, cyclic (thioether))
T13 peptide: DKFSEFLDLDPEV
Summary of the method: as §1

[14] = target: T14, ApoC3 peptide K60M (human, cyclic (thioether))
T14 peptide: DMFSEFWDLDPEV
Summary of the method: as §1

[15] = target: T15, ApoC3 peptide D66M (human, not fully specified; cyclic (thioether))
T15 peptide: DKFSEFWMLDPEV
Summary of the method: as §1

[16] = target: T16, ApoC3 peptide D59N (human, thioether (positions not given here); not fully specified (C-terminus, bridges); also: cyclised via thioether between a C-terminal Cys and a modified N-terminus, the Cys and the N-terminal …)
T16 peptide: NKFSEFWDLDPEV
Summary of the method: as §1

[17] = target: T17, ApoC3 peptide F61N (human, cyclic (thioether))
T17 peptide: DKNSEFWDLDPEV
Summary of the method: as §1

[18] = target: T18, ApoC3 peptide S62N (human, thioether (positions not given here); also: cyclic (thioether), ring places not given here)
T18 peptide: DKFNEFWDLDPEV
Summary of the method: as §1

[19] = target: T19, ApoC3 peptide F64P (human, thioether (positions not given here); not fully specified (bridges); also: cyclic (thioether), positions not given here)
T19 peptide: DKFSEPWDLDPEV
Summary of the method: as §1

[20] = target: T20, ApoC3 peptide V71P (human, not fully specified; cyclic (thioether))
T20 peptide: DKFSEFWDLDPEP
Summary of the method: as §1

[21] = target: T21, ApoC3 peptide W65Q (human, cyclic (thioether))
T21 peptide: DKFSEFQDLDPEV
Summary of the method: as §1

[22] = target: T22, ApoC3 peptide D59R (human, thioether (positions not given here); not fully specified (C-terminus, bridges); also: cyclised via thioether between a C-terminal Cys and a modified N-terminus, the Cys and the N-terminal …)
T22 peptide: RKFSEFWDLDPEV
Summary of the method: as §1

[23] = target: T23, ApoC3 peptide E63R (human, cyclic (thioether))
T23 peptide: DKFSRFWDLDPEV
Summary of the method: as §1

[24] = target: T24, ApoC3 peptide W65R (human, cyclic (thioether))
T24 peptide: DKFSEFRDLDPEV
Summary of the method: as §1

[25] = target: T25, ApoC3 peptide D66R (human, not fully specified; cyclic (thioether))
T25 peptide: DKFSEFWRLDPEV
Summary of the method: as §1

[26] = target: T26, ApoC3 peptide E70R (human, cyclic (thioether))
T26 peptide: DKFSEFWDLDPRV
Summary of the method: as §1

[27] = target: T27, ApoC3 peptide S62T (human, thioether (positions not given here); also: cyclic (thioether), ring places not given here)
T27 peptide: DKFTEFWDLDPEV
Summary of the method: as §1

[28] = target: T28, ApoC3 peptide D68W (human, cyclic (thioether))
T28 peptide: DKFSEFWDLWPEV
Summary of the method: as §1

[29] = target: T29, ApoC3 peptide V71W (human, not fully specified; cyclic (thioether))
T29 peptide: DKFSEFWDLDPEW
Summary of the method: as §1

[30] = target: T30, ApoC3 peptide E63Y (human, cyclic (thioether))
T30 peptide: DKFSYFWDLDPEV
Summary of the method: as §1

[31] = target: T31, ApoC3 peptide K60C (human, thioether (positions not given here); not fully specified (bridges); also: cyclic (thioether), positions not given here)
T31 peptide: DCFSEFWDLDPEV
Summary of the method: as §1

B1: Llama antibody 5E5 (antibody, V domains shown)
VH: QLQLVESGGGLVQPGGSLRLSCAASGFTFGTYSMRWVRQVPRKALEWVSSISTDGGGTAYRDSVKGRFTISRDNAKNTLYLQMNNLKPEDTAIYYCVIAGYSDWGQGTQVTVSS
VL: ATMLTQSPGSLSVVPGESASISCKTSQGLVHSDGKTYFYWFLQKPGQSPQQLIYQVSNRASGVPDRFTGSGSGTDFTLKISGVKAEDAGVYYCAQGTYYPHTFGSGTRLEIK
notes: detected with goat anti-human IgG (Fc); also called mAb 5E5
B1 was tested, and the “% of binding to wild-type peptide” value [1] was 0.45%, the “% of binding to wild-type peptide” value [2] was 57.1% and the “% of binding to wild-type peptide” value [3] was 40.1%. For the same binder, the “% of binding to wild-type peptide” value [4] was 46.1%, the “% of binding to wild-type peptide” value [5] was 2.89% and the “% of binding to wild-type peptide” value [6] was 10.7%. For the same binder, the “% of binding to wild-type peptide” value [7] was 72.8%, the “% of binding to wild-type peptide” value [8] was 0% and the “% of binding to wild-type peptide” value [9] was 66%. The “% of binding to wild-type peptide” value [10] was 0.04%, the “% of binding to wild-type peptide” value [11] was 33.6% and the “% of binding to wild-type peptide” value [12] was 63.4%. The “% of binding to wild-type peptide” value [13] was 0%, the “% of binding to wild-type peptide” value [14] was 186% and the “% of binding to wild-type peptide” value [15] was 0%. For the same binder, the “% of binding to wild-type peptide” value [16] was 52.5%, the “% of binding to wild-type peptide” value [17] was 25.9% and the “% of binding to wild-type peptide” value [18] was 0%. The “% of binding to wild-type peptide” value [19] was 528%, the “% of binding to wild-type peptide” value [20] was 173% and the “% of binding to wild-type peptide” value [21] was 0%. For the same binder, the “% of binding to wild-type peptide” value [22] was 43.3%, the “% of binding to wild-type peptide” value [23] was 2.19% and the “% of binding to wild-type peptide” value [24] was 0.02%. For the same binder, the “% of binding to wild-type peptide” value [25] was 0.17%, the “% of binding to wild-type peptide” value [26] was 35.8% and the “% of binding to wild-type peptide” value [27] was 215%. The “% of binding to wild-type peptide” value [28] was 0%, the “% of binding to wild-type peptide” value [29] was 68.7% and the “% of binding to wild-type peptide” value [30] was 90.9%. For the same binder, the “% of binding to wild-type peptide” value [31] was 67.2%.
